Experimental data published in US20260167721A1 (ABLEXIS, published 2026).
Residue numbers refer to the chain shown, from its start.

What was measured:
[1] = molecular target: T1, recombinant human CD3 epsilon/gamma heterodimer (human, UniProt P07766 23-126; P09693 23-116); assay: Octet BLI, mAb on FAB2G sensor, hCD3 E/G 200-50 nM; R^2 0.94
T1 construct: Recombinant protein in solution (200-50 nM) in the Octet assay; also called hCD3 E/G

[2] = molecular target: T2, recombinant human CD3 epsilon/delta heterodimer (human, UniProt P07766 23-126; P04234 22-105); assay: Octet BLI, mAb on FAB2G sensor, hCD3 E/D 200-50 nM; R^2 0.94
T2 construct: Recombinant protein in solution (200-50 nM) in the Octet assay; also called hCD3 E/D; human CD3E/D
T2 sequence (P07766 23-126, stated change not applied, chain 1 of 2): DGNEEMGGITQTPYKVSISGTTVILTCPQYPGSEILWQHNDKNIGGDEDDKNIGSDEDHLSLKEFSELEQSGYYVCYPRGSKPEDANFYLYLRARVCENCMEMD
T2 sequence (P04234 22-105, stated change not applied, chain 2 of 2): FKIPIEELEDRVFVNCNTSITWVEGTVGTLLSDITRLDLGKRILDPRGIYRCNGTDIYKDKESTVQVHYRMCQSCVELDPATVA

[3] = molecular target: T2, recombinant human CD3 epsilon/delta …; assay: Octet BLI, mAb on FAB2G sensor, hCD3 E/D 200-50 nM; R^2 0.96
[4] = molecular target: T1, recombinant human CD3 epsilon/gamma …; assay: Octet BLI, mAb on FAB2G sensor, hCD3 E/G 200-50 nM; R^2 0.96
[5] = molecular target: CD3 on effector cells (human Pan-T or PBMC) (human, UniProt P07766 23-207; P04234 22-171; P09693 23-182; P20963 22-164); assay: cell-based or functional assay
Chain of CD3 on effector cells (human Pan-T or PBMC) (P07766 23-207, chain 1 of 4): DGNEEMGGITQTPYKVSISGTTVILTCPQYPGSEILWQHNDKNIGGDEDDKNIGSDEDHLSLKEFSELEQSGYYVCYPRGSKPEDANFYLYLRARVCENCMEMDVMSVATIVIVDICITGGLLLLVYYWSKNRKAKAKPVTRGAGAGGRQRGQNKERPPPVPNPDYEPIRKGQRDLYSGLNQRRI
Chain of CD3 on effector cells (human Pan-T or PBMC) (P04234 22-171, chain 2 of 4): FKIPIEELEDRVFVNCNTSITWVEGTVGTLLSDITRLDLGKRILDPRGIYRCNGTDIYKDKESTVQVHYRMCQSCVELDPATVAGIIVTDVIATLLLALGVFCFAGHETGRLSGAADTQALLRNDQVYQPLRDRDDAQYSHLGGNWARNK
Chain of CD3 on effector cells (human Pan-T or PBMC) (P09693 23-182, chain 3 of 4): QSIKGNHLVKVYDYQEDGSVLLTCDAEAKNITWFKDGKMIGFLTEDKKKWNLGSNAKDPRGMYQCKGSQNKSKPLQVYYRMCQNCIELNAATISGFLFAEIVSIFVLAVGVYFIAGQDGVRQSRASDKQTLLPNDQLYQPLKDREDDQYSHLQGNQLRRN
Chain of CD3 on effector cells (human Pan-T or PBMC) (P20963 22-164, chain 4 of 4): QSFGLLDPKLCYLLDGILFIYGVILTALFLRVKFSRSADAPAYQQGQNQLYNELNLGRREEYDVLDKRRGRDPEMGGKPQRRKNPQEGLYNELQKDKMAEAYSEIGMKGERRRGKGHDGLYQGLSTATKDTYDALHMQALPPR

recombinant CD3 proteins [6] = assay: Octet (BLI), bispecific antibody against recombinant CD3 proteins
recombinant CD3 proteins [7] = molecular target: T3, recombinant CD3 proteins (UniProt P07766 23-126); assay: Octet BLI, recombinant CD3; Full R^2 0.9882
T3 construct: elsewhere it uses human CD3 E/D and E/G heterodimers
T3 sequence (P07766 23-126): as the sequence (P07766 23-126, stated change not applied, chain 1 of 2) above

[8] = molecular target: T4, human CD3 (TCR/CD3 complex) on the cell surface (human, UniProt P07766 23-207; P09693 23-182; P04234 22-171; P20963 22-164); assay: flow cytometry, gMFI Jurkat WT over Jurkat TCRb KO, 1 ug/mL
T4 construct: whole, on cells; also called CD3 on Pan-T cells; CD3 on Jurkat WT cells
T4 sequence (P07766 23-207, chain 1 of 4): as the sequence (P07766 23-207, chain 1 of 4) above
T4 sequence (P09693 23-182, chain 2 of 4): as the sequence (P09693 23-182, chain 3 of 4) above
T4 sequence (P04234 22-171, chain 3 of 4): as the sequence (P04234 22-171, chain 2 of 4) above
T4 sequence (P20963 22-164, chain 4 of 4): as the sequence (P20963 22-164, chain 4 of 4) above

[9] = molecular target: T4, human CD3 (TCR/CD3 complex) on the cell …; assay: flow cytometry, Jurkat WT cells, 10 ug/mL
[10] = molecular target: T4, human CD3 (TCR/CD3 complex) on the cell …; assay: flow cytometry, gMFI Jurkat WT over Jurkat TCRb KO, 10 ug/mL
[11] = molecular target: T4, human CD3 (TCR/CD3 complex) on the cell …; assay: flow cytometry, Jurkat WT cells, 1 ug/mL
recombinant CD3 proteins [12] = molecular target: T3, recombinant CD3 proteins; assay: Octet BLI, recombinant CD3; Full R^2 0.995
[13] = molecular target: T4, human CD3 (TCR/CD3 complex) on the cell …; assay: flow cytometry, Pan-T cells, 1 ug/mL
[14] = molecular target: T4, human CD3 (TCR/CD3 complex) on the cell …; assay: flow cytometry, Pan-T cells, 10 ug/mL
recombinant CD3 proteins [15] = molecular target: T3, recombinant CD3 proteins; assay: Octet BLI, recombinant CD3; Full R^2 0.8253

T1 sequence (P07766 23-126, chain 1 of 2): as the sequence (P07766 23-126, stated change not applied, chain 1 of 2) above
T1 sequence (P09693 23-116, chain 2 of 2): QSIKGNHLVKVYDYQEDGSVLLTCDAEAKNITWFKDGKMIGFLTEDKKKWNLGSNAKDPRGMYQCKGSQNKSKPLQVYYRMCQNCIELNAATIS

B1: ABL-CD3-29 (antibody, V domains shown)
VH: EVQLVQSGAEVKKPGESLKISCKGSGYSFISYWIAWVRQMPGKGLEWMGIIYPGDSETRYRPSFQGQVTISADKSINTAYLQWSSLKAADTAMYYCARQGAYDGFDIWGQGTMVTVSS
VL: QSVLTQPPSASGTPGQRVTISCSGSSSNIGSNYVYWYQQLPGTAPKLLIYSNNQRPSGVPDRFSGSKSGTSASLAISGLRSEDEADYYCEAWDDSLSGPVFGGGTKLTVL
notes: Chimeric hybridoma mAb: human V, CH1, upper hinge; mouse middle hinge, CH2, CH3
- Kd [1]: 2.5 nM
- Response [1]: 0.44
- koff [1]: 0.000852 s⁻¹
- kon [1]: 341000 M⁻¹ s⁻¹
- Kd [2]: 2.63 nM
- koff [2]: 0.000816 s⁻¹
- kon [2]: 310000 M⁻¹ s⁻¹

B2: ABL-CD3-33 (antibody, V domains shown)
VH: EVQLVESGGGLVKPGGSLRLSCAASGFTFSSYSMNWVRQAPGKGLEWVSSISRSSSYIYYADSVKGRFTISRDNAKNSLYLQMNSLRAEDTAVYYCAREPPTLGMDYWGQGTLVTVSS
VL: NFMLTQPHSVSESPGKTVTISCTRSSGSIASNYVQWYQQRPGSSPTTVIYEDNQRPSGVPDRFSGSIDSSSNSASLTISGLKTEDEADYYCQSYYNSNRVFGGGTKLTVL
notes: as for B1
- Kd [3]: 56.2 nM
- Response [3]: 0.33
- koff [3]: 0.0206 s⁻¹
- kon [3]: 366000 M⁻¹ s⁻¹
- Kd [4]: 60 nM
- koff [4]: 0.0155 s⁻¹
- kon [4]: 259000 M⁻¹ s⁻¹

B3: Control Humanized anti-CD3 (high affinity) scFv-Fc knob/TM, as bispecific with gemtuzumab (bispecific antibody)
scFv: EVQLVESGGGLVQPGGSLRLSCAASGFTFSTYAMNWVRQAPGKGLEWVGRIRSKYNNYATYYADSVKGRFTISRDDSKNTLYLQMNSLRAEDTAVYYCVRHGNFGDSYVSWFAYWGQGTLVTVSSGKPGSGKPGSGKPGSGKPGSQAVVTQEPSLTVSPGGTVTLTCGSSTGAVTTSNYANWVQQKPGKSPRGLIGGTNKRAPGVPARFSGSLLGGKAALTISGAQPEDEADYYCALWYSNHWVFGGGTKLTVLGGGGSDKTHTCPPCPAPEFEGGPSVFLFPPKPKDTLMISRTPEVTCVVVDVSHEDPEVKFNWYVDGVEVHNAKTKPREEQYNSTYRVVSVLTVLHQDWLNGKEYKCKVSNKALPASIEKTISKAKGQPREPQVYTLPPCREEMTKNQVSLWCLVKGFYPSDIAVEWESNGQPENNYKTTPPVLDSDGSFFLYSKLTVDKSRWQQGNVFSCSVMHEALHNHYTQKSLSLSPGK
heavy: EVQLVQSGAEVKKPGSSVKVSCKASGYTITDSNIHWVRQAPGQSLEWIGYIYPYNGGTDYNQKFKNRATLTVDNPTNTAYMELSSLRSEDTAFYYCVNGNPWLAYWGQGTLVTVSSASTKGPSVFPLAPSSKSTSGGTAALGCLVKDYFPEPVTVSWNSGALTSGVHTFPAVLQSSGLYSLSSVVTVPSSSLGTQTYICNVNHKPSNTKVDKRVEPKSCDKTHTCPPCPAPEFEGGPSVFLFPPKPKDTLMISRTPEVTCVVVDVSHEDPEVKFNWYVDGVEVHNAKTKPREEQYNSTYRVVSVLTVLHQDWLNGKEYKCKVSNKALPASIEKTISKAKGQPREPQVCTLPPSREEMTKNQVSLSCAVKGFYPSDIAVEWESNGQPENNYKTTPPVLDSDGSFFLVSKLTVDKSRWQQGNVFSCSVMHEALHNRFTQKSLSLSPGK
light: DIQLTQSPSTLSASVGDRVTITCRASESLDNYGIRFLTWFQQKPGKAPKLLMYAASNQGSGVPSRFSGSGSGTEFTLTISSLQPDDFATYYCQQTKEVPWSFGQGTKVEVKRTVAAPSVFIFPPSDEQLKSGTASVVCLLNNFYPREAKVQWKVDNALQSGNSQESVTEQDSKDSTYSLSSTLTLSKADYEKHKVYACEVTHQGLSSPVTKSFNRGEC
- RTCC EC50 (nM), KILR HL-60 T Cell Redirection cytotoxic assay with CD33-expressing target cells [5]: 0.03 nM
- Kd (recombinant CD3 proteins [6]): 20.1 nM
- Response (recombinant CD3 proteins [6]): 0.73
- koff (recombinant CD3 proteins [6]): 0.00652 s⁻¹
- kon (recombinant CD3 proteins [6]): 325000 M⁻¹ s⁻¹

B4: CD3 × CD33-BspAb67 (bispecific antibody)
chain 1: not shown
chain 2: B3 heavy
chain 3: B3 light
- Kd (recombinant CD3 proteins [7]): 5.57 nM
- koff (recombinant CD3 proteins [7]): 0.00234 s⁻¹
- kon (recombinant CD3 proteins [7]): 421000 M⁻¹ s⁻¹

B5: CD3 × CD33-BspAb126 (bispecific antibody)
chain 1: QVQLQESGPGLVKPSETLSLTCTVSGGSINSYYWSWIRQPAGKCLEWIGRIYTSGSTNYNPSLKSRVTMSVDTSKKQFSLKLSSVTAADTAVYYCARERISRLYFDYWGQGILVTVSSGGGGSGGGGSGGGGSGGGGSNFMLTQPHSVSESPGKTVTISCTRSSGSIASNYVQWYQQRPGSSPTTVIYEDNQRPSGVPDRFSGSIDSSSNSASLTISGLKTEDEADYYCQSYDRSNRVFGCGTKLTVLDKTHTCPPCPAPEFEGGPSVFLFPPKPKDTLMISRTPEVTCVVVDVSHEDPEVKFNWYVDGVEVHNAKTKPREEQYNSTYRVVSVLTVLHQDWLNGKEYKCKVSNKALPASIEKTISKAKGQPREPQVYTLPPCREEMTKNQVSLWCLVKGFYPSDIAVEWESNGQPENNYKTTPPVLDSDGSFFLYSKLTVDKSRWQQGNVFSCSVMHEALHNHYTQKSLSLSPGK
chain 2: B3 heavy
chain 3: B3 light
- Jurkat WT/KO (Fold) [8]: 5.3 fold
- gMFI [9]: 26000 gMFI
- Jurkat WT/KO (Fold) [10]: 8.8 fold
- gMFI [11]: 15700 gMFI
- Kd (recombinant CD3 proteins [12]): 78.4 nM
- koff (recombinant CD3 proteins [12]): 0.0117 s⁻¹
- kon (recombinant CD3 proteins [12]): 149000 M⁻¹ s⁻¹
- % Positive [13]: 98.3%
- gMFI [13]: 56000 gMFI
- % Positive [14]: 99.7%
- gMFI [14]: 161000 gMFI

B6: CD3 × CD33-BspAb70 (bispecific antibody)
chain 1: EVQLVESGGGLVKPGGSLRLSCAASGFTFSSYSMKWVRQAPGKCLEWVSSISSSSSYIYYADSVKGRFTISRDNAKNSLYLQMNSLRAEDTAVYYCARDRGELTLWYWGQGTLVTVSSGGGGSGGGGSGGGGSGGGGSSYELTQPPSVSVSPGQTARITCSGDALPKKYAYWYQQKSGQAPVLVIYEDSKRPSGIPERFSGSSSGTMATLTISGAQVEDEADYYCYSTDSSGNHWVFGCGTKLTVLDKTHTCPPCPAPEFEGGPSVFLFPPKPKDTLMISRTPEVTCVVVDVSHEDPEVKFNWYVDGVEVHNAKTKPREEQYNSTYRVVSVLTVLHQDWLNGKEYKCKVSNKALPASIEKTISKAKGQPREPQVYTLPPCREEMTKNQVSLWCLVKGFYPSDIAVEWESNGQPENNYKTTPPVLDSDGSFFLYSKLTVDKSRWQQGNVFSCSVMHEALHNHYTQKSLSLSPGK
chain 2: B3 heavy
chain 3: B3 light
- Kd (recombinant CD3 proteins [15]): 9.11 nM
- koff (recombinant CD3 proteins [15]): 0.00554 s⁻¹
- kon (recombinant CD3 proteins [15]): 609000 M⁻¹ s⁻¹

B7: Control Humanized anti-CD3 (low affinity) scFv-Fc knob/TM, as bispecific with gemtuzumab (bispecific antibody)
scFv: B3 scFv with A113D
heavy: B3 heavy
light: B3 light
- RTCC EC50 (nM), KILR HL-60 T Cell Redirection cytotoxic assay with CD33-expressing target cells [5]: 1.48 nM
- Kd (recombinant CD3 proteins [6]): 50.3 nM
- Response (recombinant CD3 proteins [6]): 0.3
- koff (recombinant CD3 proteins [6]): 0.0121 s⁻¹
- kon (recombinant CD3 proteins [6]): 241000 M⁻¹ s⁻¹
